We go through 3 molecules from US20240294895A1, “ENZYMATIC COMPOSITIONS FOR CARBOHYDRATE ANTIGEN CLEAVAGE ON DONOR ORGANS, METHODS AND USES ASSOCIATED THEREWITH” (THE UNIVERSITY OF BRITISH COLUMBIA, priority 2018, published 2024).

Data set [1] deals with Flavonifractor plautii GalNAcDeacetylase (FpGalNAcDeAc), SEQ ID NO: 2, 4, 5 (Flavonifractor plautii, UniProt P0DTR4). Conditions: 100 μM EDTA; 50 μM A antigen subtype 1penta-MU, pH 7.4, 37° C.
Data set [2] concerns the target T1, Flavonifractor plautii Galactosaminidase (FpGalNase), full length, SEQ ID NO: 7, 9, 10 (Flavonifractor plautii, UniProt P0DTR5).
T1 sequence (P0DTR5 with tags, fused parts or gaps): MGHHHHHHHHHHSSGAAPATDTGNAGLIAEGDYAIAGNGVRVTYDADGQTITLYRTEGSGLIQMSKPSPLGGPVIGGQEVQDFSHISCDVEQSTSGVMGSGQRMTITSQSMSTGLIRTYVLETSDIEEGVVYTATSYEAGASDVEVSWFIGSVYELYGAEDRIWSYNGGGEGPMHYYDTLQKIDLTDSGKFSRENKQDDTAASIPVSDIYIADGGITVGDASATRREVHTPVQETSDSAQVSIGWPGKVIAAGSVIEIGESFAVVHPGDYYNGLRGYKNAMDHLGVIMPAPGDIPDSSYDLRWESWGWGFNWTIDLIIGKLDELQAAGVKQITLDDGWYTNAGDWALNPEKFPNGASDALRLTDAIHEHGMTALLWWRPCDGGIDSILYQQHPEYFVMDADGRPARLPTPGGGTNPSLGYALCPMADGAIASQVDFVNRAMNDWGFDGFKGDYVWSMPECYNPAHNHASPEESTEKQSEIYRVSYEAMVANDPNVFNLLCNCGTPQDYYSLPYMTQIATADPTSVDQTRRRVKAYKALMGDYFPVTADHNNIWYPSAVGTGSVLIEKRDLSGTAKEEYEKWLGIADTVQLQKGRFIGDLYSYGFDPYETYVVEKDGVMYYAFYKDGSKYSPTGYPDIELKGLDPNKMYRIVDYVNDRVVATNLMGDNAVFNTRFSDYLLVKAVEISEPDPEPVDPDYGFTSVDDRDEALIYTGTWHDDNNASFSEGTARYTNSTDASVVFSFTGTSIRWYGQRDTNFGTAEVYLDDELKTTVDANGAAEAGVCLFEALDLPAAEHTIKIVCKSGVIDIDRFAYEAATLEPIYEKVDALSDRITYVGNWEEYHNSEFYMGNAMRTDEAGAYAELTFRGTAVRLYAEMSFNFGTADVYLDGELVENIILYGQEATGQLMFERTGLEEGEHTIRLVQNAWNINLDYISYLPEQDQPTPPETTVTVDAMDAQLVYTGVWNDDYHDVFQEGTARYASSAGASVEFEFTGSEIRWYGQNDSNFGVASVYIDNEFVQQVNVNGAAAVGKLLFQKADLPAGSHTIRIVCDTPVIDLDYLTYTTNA
Nature of the data set: Kinetic parameters of FpGalNase full length (MU or pNP release). In kind it is biochemical. To be noted: versus corresponding GalN-antigen. As to the method: (§1) All kinetic assays utilizing 4-methylumbelliferone as leaving group were performed through measurement of fluorescence. To avoid measurement errors based on the inner filter effect (Palmier 2007) standard curves were used to validate the linear range of the fluorophore.
(§2) Michaelis-Menten parameter was determined for GalN antigen subtype 1penta-MU and A antigen subtype 1penta-MU in 100 mM NaH2PO4, pH 7.4 at 37° C. Reaction was performed in 100 μl with 3.4 nM FpGalactosaminidase (5.31 nM FpGalNase_truncA) and 0.1 mg/mL SpHex, AfcA, 0.2 mg/mL BgaC and varying concentrations of substrate (5 μM-2 mM). The reactions were run as a series of four with controls (no FpGalactosaminidase) as duplicates. The fluorescence signal (365/435 nm) resulting from MU release by hydrolysis was monitored by Synergy H1™ plate reader [BioTek™] and converted to concentration using MU standard concentration curves determined under identical reaction conditions. Initial rates (μM/s) were determined and plotted in Grafit 7.0™ to determine the kinetic parameters.
kcat/KM parameter was determined for GalN antigen subtype 1/2/4tetra-MU and B antigen subtype 1tetra-MU at pH 7.4 and 37° C. […] Initial rates (μM/s) were determined and plotted in Grafit 7.0™ to determine the kcat/KM (s^−1*mM^−1) parameters. […]

Substrate in data set [3]: CC(=O)N[C@H]1[C@H](Oc2ccc3c(C)cc(=O)oc3c2)O[C@H](CO)[C@@H](O)[C@@H]1O[C@@H]1O[C@H](CO)[C@H](O)[C@H](O[C@H]2O[C@H](CO)[C@H](O)[C@H](O)[C@H]2N)[C@H]1O[C@@H]1O[C@@H](C)[C@@H](O)[C@@H](O)[C@@H]1O
The description is as above. The format is biochemical, Flavonifractor plautii. Conditions: other: 100 mM NaH2PO4, pH 7.4, 37° C. The protocol:
as §1, §2
(§3) kcat/KM parameter was determined for GalN antigen subtype 1/2/4tetra-MU and B antigen subtype 1tetra-MU at pH 7.4 and 37° C. Reactions (total volume of 100 μL) were performed in black 96-plate wells and as coupled assays in 100 mM NaH2 PO4 (pH 7.4) with 8.63 nM FpGalactosaminidase, 0.1 mg/mL SpHex, BgaC (BgaA for Subtype 2), AfcA, varying concentrations of substrate (25 μM, 20 μM, 15 μM, 10 μM, 7.5 μM, 5 μM). The reactions were run as a series of four with controls (no FpGalactosaminidase) as duplicates. The fluorescence signal (365/435 nm) resulting from MU release by hydrolysis was monitored by Synergy H1™ plate reader [BioTek™] and converted to concentration using MU standard concentration curves determined under identical reaction conditions. Initial rates (μM/s) were determined and plotted in Grafit 7.0™ to determine the kcat/KM (s^−1*mM^−1) parameters.
(§4) Michaelis-Menten parameters were determined for GalN-α-pNP in clear 96-plate at 37° C. with 863.2 nM FpGalactosaminidase (in 100 mM NaH2PO4, pH 7.4) or 369.9 nM FpGH4 (in 50 mM Tris/HCl, pH 7.4, 100 μM NAD^+, 1 mM MnCl2) with varying concentrations of substrate (10 μM-5 mM) in a volume of 100 μl. The reactions were run as a series of three with two controls (no enzyme). The absorption (at 405 nm) resulting from pNP release by hydrolysis was monitored by Synergy H1™ plate reader [BioTek™] and converted to concentration using p-nitrophenol standard concentration curves determined under identical reaction conditions. Initial rates (μM/s) were determined and plotted in Grafit 7.0™ to determine the kinetic parameters.

Substrate in data set [4]: CC(=O)N[C@H]1[C@H](O[C@H]2[C@@H](O)[C@@H](CO)O[C@@H](Oc3ccc4c(C)cc(=O)oc4c3)[C@@H]2O)O[C@H](CO)[C@@H](O)[C@@H]1O[C@@H]1O[C@H](CO)[C@H](O)[C@H](O[C@H]2O[C@H](CO)[C@H](O)[C@H](O)[C@H]2N)[C@H]1O[C@@H]1O[C@@H](C)[C@@H](O)[C@@H](O)[C@@H]1O
The data set is described as above. In kind it is biochemical, Flavonifractor plautii. Conditions: other: 100 mM NaH2PO4, pH 7.4, 37° C. The protocol:
as §1, §2, §3, §4

Substrate in data set [5]: N[C@H]1[C@@H](Oc2ccc([N+](=O)[O-])cc2)O[C@H](CO)[C@H](O)[C@@H]1O
Described as above. The format is biochemical, Flavonifractor plautii. To be noted: other: 100 mM NaH2PO4, pH 7.4, 37° C. The protocol:
as §1, §2, §3, §4

Substrate in data set [6]: CC(=O)N[C@H]1[C@H](Oc2ccc3c(C)cc(=O)oc3c2)O[C@H](CO)[C@@H](O)[C@@H]1O[C@@H]1O[C@H](CO)[C@H](O)[C@H](O[C@H]2O[C@H](CO)[C@H](O)[C@H](O)[C@H]2O)[C@H]1O[C@@H]1O[C@@H](C)[C@@H](O)[C@@H](O)[C@@H]1O
The data set is described as above. In kind it is biochemical, Flavonifractor plautii. To be noted: other: 100 mM NaH2PO4, pH 7.4, 37° C. As to the method: as §1, §2, §3, §4

Substrate in data set [7]: CC(=O)N[C@H]1[C@H](Oc2ccc3c(C)cc(=O)oc3c2)O[C@H](CO)[C@@H](O[C@@H]2O[C@H](CO)[C@H](O)[C@H](O[C@H]3O[C@H](CO)[C@H](O)[C@H](O)[C@H]3N)[C@H]2O[C@@H]2O[C@@H](C)[C@@H](O)[C@@H](O)[C@@H]2O)[C@@H]1O
The description is as above. Conditions: other: 100 mM NaH2PO4, pH 7.4, 37° C. In kind it is biochemical, Flavonifractor plautii. The protocol: as §1, §2, §3, §4

Substrate in data set [8]: CC(=O)N[C@H]1[C@H](Oc2ccc3c(C)cc(=O)oc3c2)O[C@H](CO)[C@H](O)[C@@H]1O[C@@H]1O[C@H](CO)[C@H](O)[C@H](O[C@H]2O[C@H](CO)[C@H](O)[C@H](O)[C@H]2N)[C@H]1O[C@@H]1O[C@@H](C)[C@@H](O)[C@@H](O)[C@@H]1O
Described as above. The format is biochemical, Flavonifractor plautii. To be noted: other: 100 mM NaH2PO4, pH 7.4, 37° C. The protocol: as §1, §2, §3, §4

Sequence of Flavonifractor plautii GalNAcDeacetylase (FpGalNAcDeAc), SEQ ID NO: 2, 4, 5 (P0DTR4 13-772, looked up, natural form): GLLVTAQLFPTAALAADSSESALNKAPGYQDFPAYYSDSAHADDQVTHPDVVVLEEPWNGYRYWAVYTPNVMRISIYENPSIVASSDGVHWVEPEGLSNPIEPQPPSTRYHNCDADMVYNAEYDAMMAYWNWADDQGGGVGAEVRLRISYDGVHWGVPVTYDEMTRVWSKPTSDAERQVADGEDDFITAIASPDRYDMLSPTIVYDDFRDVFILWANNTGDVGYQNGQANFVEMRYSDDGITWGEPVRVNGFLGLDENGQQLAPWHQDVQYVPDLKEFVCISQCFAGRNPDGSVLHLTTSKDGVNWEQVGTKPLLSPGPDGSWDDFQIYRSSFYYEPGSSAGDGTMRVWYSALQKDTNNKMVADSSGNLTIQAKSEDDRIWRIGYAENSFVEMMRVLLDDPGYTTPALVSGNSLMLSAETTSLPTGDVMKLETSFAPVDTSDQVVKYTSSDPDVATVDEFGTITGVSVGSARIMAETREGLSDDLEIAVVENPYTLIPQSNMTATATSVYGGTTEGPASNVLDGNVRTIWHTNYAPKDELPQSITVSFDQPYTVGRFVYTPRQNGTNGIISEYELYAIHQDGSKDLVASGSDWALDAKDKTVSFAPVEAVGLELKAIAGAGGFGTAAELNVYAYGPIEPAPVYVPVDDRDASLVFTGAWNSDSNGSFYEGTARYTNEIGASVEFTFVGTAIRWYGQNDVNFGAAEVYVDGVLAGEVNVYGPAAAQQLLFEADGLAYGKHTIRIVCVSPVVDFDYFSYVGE

With `O=C(O)CN(CCN(CC(=O)O)CC(=O)O)CC(=O)O` [EDTA], the “effect of treatment on enzyme activity” value in data set [1] was “largely obliterated the enzyme activity”.

In the case of `CC(=O)N[C@H]1[C@H](Oc2ccc3c(C)cc(=O)oc3c2)O[C@H](CO)[C@@H](O)[C@@H]1O[C@@H]1O[C@H](CO)[C@H](O)[C@H](O[C@H]2O[C@H](CO)[C@H](O)[C@H](O)[C@H]2O)[C@H]1O[C@@H]1O[C@@H](C)[C@@H](O)[C@@H](O)[C@@H]1O` [B antigen Type1tetra-MU], in data set [2], the “kcat/KM for cleavage of B-antigen, times lower than for the corresponding GalN-antigen” value is “over 2000 times lower”.

B1: Flavonifractor plautii Galactosaminidase (FpGalNase), full length, SEQ ID NO: 7, 9, 10 (Flavonifractor plautii) (protein)
chain: MGHHHHHHHHHHSSGAAPATDTGNAGLIAEGDYAIAGNGVRVTYDADGQTITLYRTEGSGLIQMSKPSPLGGPVIGGQEVQDFSHISCDVEQSTSGVMGSGQRMTITSQSMSTGLIRTYVLETSDIEEGVVYTATSYEAGASDVEVSWFIGSVYELYGAEDRIWSYNGGGEGPMHYYDTLQKIDLTDSGKFSRENKQDDTAASIPVSDIYIADGGITVGDASATRREVHTPVQETSDSAQVSIGWPGKVIAAGSVIEIGESFAVVHPGDYYNGLRGYKNAMDHLGVIMPAPGDIPDSSYDLRWESWGWGFNWTIDLIIGKLDELQAAGVKQITLDDGWYTNAGDWALNPEKFPNGASDALRLTDAIHEHGMTALLWWRPCDGGIDSILYQQHPEYFVMDADGRPARLPTPGGGTNPSLGYALCPMADGAIASQVDFVNRAMNDWGFDGFKGDYVWSMPECYNPAHNHASPEESTEKQSEIYRVSYEAMVANDPNVFNLLCNCGTPQDYYSLPYMTQIATADPTSVDQTRRRVKAYKALMGDYFPVTADHNNIWYPSAVGTGSVLIEKRDLSGTAKEEYEKWLGIADTVQLQKGRFIGDLYSYGFDPYETYVVEKDGVMYYAFYKDGSKYSPTGYPDIELKGLDPNKMYRIVDYVNDRVVATNLMGDNAVFNTRFSDYLLVKAVEISEPDPEPVDPDYGFTSVDDRDEALIYTGTWHDDNNASFSEGTARYTNSTDASVVFSFTGTSIRWYGQRDTNFGTAEVYLDDELKTTVDANGAAEAGVCLFEALDLPAAEHTIKIVCKSGVIDIDRFAYEAATLEPIYEKVDALSDRITYVGNWEEYHNSEFYMGNAMRTDEAGAYAELTFRGTAVRLYAEMSFNFGTADVYLDGELVENIILYGQEATGQLMFERTGLEEGEHTIRLVQNAWNINLDYISYLPEQDQPTPPETTVTVDAMDAQLVYTGVWNDDYHDVFQEGTARYASSAGASVEFEFTGSEIRWYGQNDSNFGVASVYIDNEFVQQVNVNGAAAVGKLLFQKADLPAGSHTIRIVCDTPVIDLDYLTYTTNA
For the molecule B1, the kcat/Km worked out at 45700 ± 3570 M⁻¹ s⁻¹ in data set [3]; 36480 M⁻¹ s⁻¹ in data set [4]; 40 M⁻¹ s⁻¹ in data set [5]; 20 M⁻¹ s⁻¹ in data set [6]; 47270 ± 7490 M⁻¹ s⁻¹ in data set [7]; 30050 ± 2330 M⁻¹ s⁻¹ in data set [8]. In addition, the Km came to 64.5 ± 7.6 µM in data set [4] and 700 ± 151 µM in data set [5]. Also, the turnover number (kcat) in data set [4] worked out at 2.35 s⁻¹; in data set [5] it was 0.029 s⁻¹.

For orientation: kcat/Km means the turnover number divided by the Michaelis constant. Broadly, the Km is the concentration of substrate that gives half-maximal velocity. Usually kcat stands for the number of substrate molecules converted per active site and unit of time at saturation.
